These are literature values, as cited in article PMC11111649.

This series has as its target Angiotensin II (Homo sapiens) (UniProt P01019).
Chain of UniProt P01019 (P01019 whole entry, looked up): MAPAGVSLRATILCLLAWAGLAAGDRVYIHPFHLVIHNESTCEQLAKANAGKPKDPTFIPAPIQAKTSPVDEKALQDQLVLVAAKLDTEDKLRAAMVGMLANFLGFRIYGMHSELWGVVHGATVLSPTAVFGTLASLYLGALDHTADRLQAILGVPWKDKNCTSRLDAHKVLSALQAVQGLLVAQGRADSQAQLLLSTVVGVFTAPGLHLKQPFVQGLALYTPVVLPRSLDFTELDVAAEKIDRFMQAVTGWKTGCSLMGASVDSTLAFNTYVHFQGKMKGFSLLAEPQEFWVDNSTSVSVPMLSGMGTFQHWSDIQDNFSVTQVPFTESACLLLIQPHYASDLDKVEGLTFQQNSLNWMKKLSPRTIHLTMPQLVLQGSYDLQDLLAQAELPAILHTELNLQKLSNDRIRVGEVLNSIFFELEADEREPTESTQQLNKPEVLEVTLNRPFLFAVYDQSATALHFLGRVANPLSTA

One may read the Kd as a measure of binding affinity in units of concentration. Take AT1R (from UniProt P30556): the Kd was 1 nM.
